This note sets out measurements from PMC4768215, “Targeting surface-layer proteins with single-domain antibodies: a potential therapeutic approach against Clostridium difficile-associated disease” (Applied Microbiology and Biotechnology, 2015).

In assay [1] the target is T1, SLP on cells of C. difficile strain 196 (ribotype 027) (Clostridioides difficile 196 (ribotype …, UniProt A0A9R0BMB3, strain)).
T1 construct: LMW subunit of the surface layer protein (from the precursor SlpA), C. difficile strain 196, ribotype 027; HMW subunit of the surface layer protein (from the precursor SlpA), C. difficile strain 196, ribotype 027; Whole cells were the antigen; source: endogenous, on formalin-fixed C. difficile 196 cells
In words: ELISA; whole cell ELISA: formalin-fixed C. difficile cells coated on MaxiSorp plates, His6-tagged VHH at 10 μg/ml in PBS-T, 37 °C, 1 h, detected with anti-His6-HRP. The conditions noted are these: one partner purified.

The target of assay [2] is T2, SLP on cells of C. difficile strain BI-1 (ribotype 027) (Clostridioides difficile BI-1 (ribotype …, UniProt A0A9R0BMB3, strain)).
T2 construct: LMW subunit of the surface layer protein (from the precursor SlpA), C. difficile strain BI-1, ribotype 027; HMW subunit of the surface layer protein (from the precursor SlpA), C. difficile strain BI-1, ribotype 027; Whole cells were the antigen; source: endogenous, on formalin-fixed C. difficile BI-1 cells
Described as above. The settings on record: one partner purified.

Assay [3] has as its target T3, SLP on cells of C. difficile strain BI-7 (ribotype 027) (Clostridioides difficile BI-7 (ribotype …, UniProt A0A9R0BMB3, strain)).
T3 construct: LMW subunit of the surface layer protein (from the precursor SlpA), C. difficile strain BI-7, ribotype 027; HMW subunit of the surface layer protein (from the precursor SlpA), C. difficile strain BI-7, ribotype 027; Whole cells were the antigen; source: endogenous, on formalin-fixed C. difficile BI-7 cells
The assay is described as above. The settings on record: one partner purified.

For assay [4], the target named is T4, SLP on cells of C. difficile strain R20291 (ribotype 027) (Clostridioides difficile R20291 …, UniProt A0A9R0BMB3, strain).
T4 construct: LMW subunit of the surface layer protein (from the precursor SlpA), C. difficile strain R20291, ribotype 027; HMW subunit of the surface layer protein (from the precursor SlpA), C. difficile strain R20291, ribotype 027; Whole cells were the antigen; source: endogenous, on formalin-fixed C. difficile R20291 cells
The description is as above. The settings on record: one partner purified.

In assay [5] the target is T5, QCD-32g58 LMW SLP (low-molecular-weight subunit of the QCD-32g58 surface layer protein) (Clostridioides difficile QCD-32g58 …, UniProt A0A9R0BMB3, strain).
T5 construct: low-molecular-weight (LMW) subunit of the surface layer protein, cut from the precursor SlpA by Cwp84, C. difficile strain QCD-32g58 (ribotype 027); predicted mass 33.9 kDa; also called QCD-32g58 SLP LMW subunit; LMW subunit; source: purified from C. difficile QCD-32g58 (low-pH glycine extraction, minor SEC peak at about 15 ml); in the Western blot the LMW band of the extracted SLPs
In words: SPR; Biacore 3000; SEC-purified QCD-32g58 LMW SLP subunit amine-coupled to a CM5 chip; single-concentration screen, 200 nM VHH; 25 °C, 10 mM HEPES pH 7.4, 150 mM NaCl, 3 mM EDTA, 0.005 % P20. The settings on record: both partners purified. On the technique in general: In SPR one partner is held on a chip, and binding of the other changes the refractive index at the surface.

The target in assay [6] is T6, QCD-32g58 SLP (surface layer protein of C. difficile strain QCD-32g58, HMW and LMW subunits) (Clostridioides difficile QCD-32g58 …, UniProt A0A9R0BMB3, strain).
T6 construct: low-molecular-weight (LMW) subunit of the surface layer protein, cut from the precursor SlpA by Cwp84, C. difficile strain QCD-32g58 (ribotype 027); predicted mass 33.9 kDa; high-molecular-weight (HMW) subunit of the surface layer protein, cut from the precursor SlpA by Cwp84, C. difficile strain QCD-32g58 (ribotype 027); predicted mass 44.2 kDa; Both subunits come from one precursor, SlpA; also …
In words: SPR; Biacore 3000; SEC-purified QCD-32g58 SLP amine-coupled to a CM5 chip, VHH monomer fractions injected at various concentrations; 25 °C, 10 mM HEPES pH 7.4, 150 mM NaCl, 3 mM EDTA, 0.005 % P20; KD by steady-state analysis. The settings on record: both partners purified.

Assay [7] has as its target T7, 630 SLP (surface layer protein of C. difficile strain 630, HMW and LMW subunits) (Clostridioides difficile 630 (ribotype …, UniProt Q183M8, strain)).
T7 construct: low-molecular-weight (LMW) subunit of the surface layer protein, cut from the precursor SlpA by Cwp84, C. difficile strain 630 (ribotype 012); predicted mass 34.2 kDa; high-molecular-weight (HMW) subunit of the surface layer protein, cut from the precursor SlpA by Cwp84, C. difficile strain 630 (ribotype 012); predicted mass 39.5 kDa; Both subunits come from one precursor, SlpA; source: purified …
In words: SPR; Biacore 3000; 630 SLP immobilised on a CM5 chip, VHHs injected at various concentrations; data not shown. The conditions noted are these: both partners purified.

The target of assay [8] is 630 SLP (surface layer protein of C. difficile strain 630, HMW and LMW subunits) (Clostridium difficile strain 630). The description is as above.
Assay [9] addresses QCD-32g58 LMW SLP (low-molecular-weight subunit of the QCD-32g58 surface layer protein) (Clostridium difficile strain QCD-32g58). In words: SPR; Biacore 3000; SEC-purified QCD-32g58 LMW SLP subunit amine-coupled to a CM5 chip; single-concentration screen, 200 nM VHH; 25 °C, 10 mM HEPES pH 7.4, 150 mM NaCl, 3 mM EDTA, 0.005 % P20.

By Kd is commonly meant the constant that tells how readily two partners part at equilibrium. A high value points to a looser complex. As a reminder, the koff is the first-order rate constant of dissociation. Higher therefore signals a short-lived complex. As a reminder, the kon is a measure of how fast the partners come together. Higher therefore signals faster complex formation.

B1: SLP_VHH22 (VHH)
VHH: QVQLVESGGGLVQPGGSLRLSCAASGFTLDSYAIGWFRQAPGKEHEGISCISSNGGSTYYTDSVKGRFTISRDNAKNTVYLQMNSLESEDSAVYYCATVRRCSSLDMALGALATRTKGYDYWGQGTQVTVSS
notes: From an immune llama phage display library panned on QCD-32g58 SLP; source: monomeric SEC fractions for SPR; not shown: His6, C-terminal, kept
Consider B1, for which the binding result in assay [1] is “binds”; in assay [2], “binds”; in assay [3] it was “binds”; in assay [4], “binds”; in assay [7], “no binding”. For the same molecule, the Kd turned out to be 8 nM in assay [5] and 180 nM in assay [6]. This molecule showed a koff in [5] of 0.0011 s⁻¹. Also, the kon in assay [5] amounted to 130000 M⁻¹ s⁻¹.

B2: SLP_VHH26 (VHH)
VHH: QVKLEESGGGLVQAGGSLRLSCAASGRTFTNYAMAWFRQASGKEREFVAIISQSGGRTYYGDSVKGRFTISRDNAKNTVYLQLNSLQPEDTGVYYCAAGDSPYYYSRSRYDLWGPGTQVTVSS
notes: as for B1
With B2, the binding result in [1], in assay [2], in assay [3] and in assay [4] was “binds” each time. In addition, the values for the Kd in [8], in [9] and in assay [6] were 2000 nM, 460 nM and 580 nM, respectively. This molecule gave a koff in assay [9] of 0.097 s⁻¹. The kon in assay [9] came to 210000 M⁻¹ s⁻¹.

B3: SLP_VHH50 (VHH)
VHH: QVKLEESGGGLVQPGGSLRLSCAASGFTLDYYTIGWFRQAPGKEREGVACISSDDRTYYVDSVKGRFAISRDNVKNTVYLQMNNLKPEDTAVYYCASKESVFLIATMKGCAPGHDDYWGQGTQVTVSS
notes: as for B1
As to B3, the binding result is “binds” in assay [1]; “binds” in assay [2]; “binds” in assay [3]; “binds” in [4]; “no binding” in [7]. Further, the dissociation constant Kd was found to be 14 nM in [5] and 75 nM in [6]. The off-rate constant (koff) in [5] came to 0.0027 s⁻¹. The molecule also returned a kon in assay [5] of 190000 M⁻¹ s⁻¹.

B4: SLP_VHH49 (VHH)
VHH: QVKLEESGGGLVQAGGSLRLSCAASEGAFSDALSRHAAGWFRQAPGKEREFVAAISWNGANTDYKNSVNNRFTISRDTSKNTVYLQMNSLKPEDTAVYYCAAKNEPSWISRIYYRGLEYDYWGQGTQVTVSS
notes: as for B1
B4: the binding result in [1] was “binds”; in [2] it was “binds”; in [3], “binds”; in [4], “binds”; in assay [7] it was “no binding”. Moreover, the figures for the Kd in assay [5] and in assay [6] were 20 nM and 48 nM, respectively. For the same molecule, in assay [5], the koff amounted to 0.012 s⁻¹. In assay [5], this molecule yielded a kon of 590000 M⁻¹ s⁻¹.
